What was measured:
CD20 (Homo sapiens) = CD20 (Homo sapiens) (UniProt P11836); conditions: cited from earlier work
CD20 = molecular target: T1, CD20 (Homo sapiens, UniProt P11836)
T1 chain: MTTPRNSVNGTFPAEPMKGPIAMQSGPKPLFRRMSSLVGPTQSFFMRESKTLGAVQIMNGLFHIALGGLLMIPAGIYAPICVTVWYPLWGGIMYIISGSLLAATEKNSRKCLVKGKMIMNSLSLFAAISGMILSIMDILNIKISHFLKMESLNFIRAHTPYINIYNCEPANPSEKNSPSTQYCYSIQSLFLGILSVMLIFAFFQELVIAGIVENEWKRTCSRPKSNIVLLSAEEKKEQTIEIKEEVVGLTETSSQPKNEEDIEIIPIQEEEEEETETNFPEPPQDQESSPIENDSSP

rituximab
Kd (CD20 (Homo sapiens)): 4.96 nM

B1: rituximab (antibody, V domains shown)
VH: QVQLQQPGAELVKPGASVKMSCKASGYTFTSYNMHWVKQTPGRGLEWIGAIYPGNGDTSYNQKFKGKATLTADKSSSTAYMQLSSLTSEDSAVYYCARSTYYGGDWYFNVWGAGTTVTVSA
VL: QIVLSQSPAILSASPGEKVTMTCRASSSVSYIHWFQQKPGSSPKPWIYATSNLASGVPVRFSGSGSGTSYSLTISRVEAEDAATYYCQQWTSNPPTFGGGTKLEIK
modifications: FITC-labeled rituximab
Kd (CD20): 4.82 nM

Source: paper PMC6713228 (2018)
